The values that follow are results of earlier work, collected in article PMC8506081.

One data set addresses PSD-95 (Homo sapiens) (UniProt P78352).
Data set [1] addresses PSD-95 PDZ2 (Homo sapiens) (UniProt P78352).

Sequence of PSD-95 (Homo sapiens) (P78352 whole entry): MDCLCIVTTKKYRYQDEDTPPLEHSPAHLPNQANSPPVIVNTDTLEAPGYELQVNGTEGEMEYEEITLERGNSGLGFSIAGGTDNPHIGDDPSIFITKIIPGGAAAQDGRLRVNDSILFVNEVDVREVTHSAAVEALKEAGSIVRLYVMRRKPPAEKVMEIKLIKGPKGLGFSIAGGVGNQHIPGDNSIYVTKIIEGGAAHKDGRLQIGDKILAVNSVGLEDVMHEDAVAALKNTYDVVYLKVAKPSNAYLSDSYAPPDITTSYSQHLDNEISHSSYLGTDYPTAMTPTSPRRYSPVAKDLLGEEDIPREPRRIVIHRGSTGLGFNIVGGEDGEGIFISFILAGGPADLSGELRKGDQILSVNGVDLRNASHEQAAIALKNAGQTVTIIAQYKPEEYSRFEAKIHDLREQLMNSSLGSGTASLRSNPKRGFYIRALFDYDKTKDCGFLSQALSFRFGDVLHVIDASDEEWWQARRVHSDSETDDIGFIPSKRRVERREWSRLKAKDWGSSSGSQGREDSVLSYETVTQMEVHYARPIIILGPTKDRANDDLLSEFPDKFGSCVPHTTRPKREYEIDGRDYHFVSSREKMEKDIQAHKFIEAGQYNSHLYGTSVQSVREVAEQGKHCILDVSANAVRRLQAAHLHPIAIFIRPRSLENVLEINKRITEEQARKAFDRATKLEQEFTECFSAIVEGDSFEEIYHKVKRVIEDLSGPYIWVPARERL
Sequence of PSD-95 PDZ2 (Homo sapiens) (P78352 157-249): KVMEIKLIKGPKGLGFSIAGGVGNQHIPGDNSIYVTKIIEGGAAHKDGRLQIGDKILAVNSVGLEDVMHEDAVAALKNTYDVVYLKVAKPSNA

Broadly, the Ki is the equilibrium dissociation constant of an inhibitor or competing ligand from its target. Regarding AVLX-125, the inhibition constant (Ki) with PSD-95 (Homo sapiens) was 10 nM. For NA-1, the inhibition constant Ki in data set [1] was 4400 nM.
